In the supplement of paper PMC10219994 one finds ligation selection enrichment data, which are given here for 44 variants.

± gives the standard deviation of the averaged measurements.

The labels stand for the following.
B1: library; a variant is named by its letters at N, in order (parent)
chain: GAGACCGCAACTGAAAAGTTGTGGNNNNNATAGTGAGTCGCTGCCTGCAAAGACACAACT

Variants of B1 are the subject of the series. Kind of series: ligation selection enrichment (abundance after / before one-round selection) (fold); higher = more template-directed ligation activity. The following applies: with T7Psub CACGGAUGCUAAUACGACUCACUAUA; MgCl2 25 mM; 42 °C; 4 h; pH 8.5. As for the experimental part:
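Lib-N5 ligase ribozyme library: five randomized core nucleotides (including the GGA motif of N8-1) within the fixed N8-1 ribozyme flanks, transcribed by T7 RNA polymerase with a 5'-triphosphate. The library (0.75 uM) was reacted with substrate T7Psub (6 uM) in 50 mM EPPS pH 8.5 with 25 mM MgCl2 at 42 C for 4 h. Ligated products were PAGE-purified, reverse transcribed and MiSeq sequenced; enrichment = abundance after selection / abundance before selection, with two independent replicates. The full transcript is built from the printed template flanks.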
Take GAGACCGCAACTGAAAAGTTGTGGTAACAATAGTGAGTCGCTGCCTGCAAAGACACAACT: the ligation selection enrichment turned out to be 0.186 ± 0.043.

With GAGACCGCAACTGAAAAGTTGTGGTAACTATAGTGAGTCGCTGCCTGCAAAGACACAACT, the ligation selection enrichment came out at 0.925 ± 0.31.

Regarding GAGACCGCAACTGAAAAGTTGTGGTAACCATAGTGAGTCGCTGCCTGCAAAGACACAACT, the ligation selection enrichment was 0.173 ± 0.011.

For GAGACCGCAACTGAAAAGTTGTGGTAACGATAGTGAGTCGCTGCCTGCAAAGACACAACT, the ligation selection enrichment came out at 0.8672 ± 0.0053.

As for GAGACCGCAACTGAAAAGTTGTGGTAAACATAGTGAGTCGCTGCCTGCAAAGACACAACT, the ligation selection enrichment is 0.176 ± 0.054.

Regarding GAGACCGCAACTGAAAAGTTGTGGTAAAAATAGTGAGTCGCTGCCTGCAAAGACACAACT, the ligation selection enrichment is 0.145 ± 0.025.

GAGACCGCAACTGAAAAGTTGTGGTAAAGATAGTGAGTCGCTGCCTGCAAAGACACAACT: the ligation selection enrichment is 0.553 ± 0.13.

Turning to GAGACCGCAACTGAAAAGTTGTGGTAAATATAGTGAGTCGCTGCCTGCAAAGACACAACT, the ligation selection enrichment was found to be 0.784 ± 0.063.

Turning to GAGACCGCAACTGAAAAGTTGTGGGACACATAGTGAGTCGCTGCCTGCAAAGACACAACT, the ligation selection enrichment turned out to be 0.176 ± 0.0093.

For GAGACCGCAACTGAAAAGTTGTGGGACAAATAGTGAGTCGCTGCCTGCAAAGACACAACT, the ligation selection enrichment is 0.256 ± 0.04.

On to GAGACCGCAACTGAAAAGTTGTGGGACATATAGTGAGTCGCTGCCTGCAAAGACACAACT, for which the ligation selection enrichment is 0.499 ± 0.025.

On to GAGACCGCAACTGAAAAGTTGTGGGACAGATAGTGAGTCGCTGCCTGCAAAGACACAACT, for which the ligation selection enrichment was determined as 0.419 ± 0.07.

Consider GAGACCGCAACTGAAAAGTTGTGGTAAGCATAGTGAGTCGCTGCCTGCAAAGACACAACT, for which the ligation selection enrichment was determined as 0.165 ± 0.016.

For the variant GAGACCGCAACTGAAAAGTTGTGGTAAGGATAGTGAGTCGCTGCCTGCAAAGACACAACT, the ligation selection enrichment worked out at 0.733 ± 0.15.

As to GAGACCGCAACTGAAAAGTTGTGGTAAGAATAGTGAGTCGCTGCCTGCAAAGACACAACT, the ligation selection enrichment is 0.977 ± 0.16.

As to GAGACCGCAACTGAAAAGTTGTGGTAAGTATAGTGAGTCGCTGCCTGCAAAGACACAACT, the ligation selection enrichment stood at 0.0779 ± 0.028.

As to GAGACCGCAACTGAAAAGTTGTGGCACACATAGTGAGTCGCTGCCTGCAAAGACACAACT, the ligation selection enrichment amounted to 0.168 ± 0.031.

Consider GAGACCGCAACTGAAAAGTTGTGGCACAAATAGTGAGTCGCTGCCTGCAAAGACACAACT, for which the ligation selection enrichment turned out to be 0.132 ± 0.055.

For GAGACCGCAACTGAAAAGTTGTGGCACAGATAGTGAGTCGCTGCCTGCAAAGACACAACT, the ligation selection enrichment amounted to 0.134 ± 0.035.

For the variant GAGACCGCAACTGAAAAGTTGTGGCACATATAGTGAGTCGCTGCCTGCAAAGACACAACT, the ligation selection enrichment stood at 1.16 ± 0.21.

Consider GAGACCGCAACTGAAAAGTTGTGGGAAGTATAGTGAGTCGCTGCCTGCAAAGACACAACT, for which the ligation selection enrichment came out at 0.121 ± 0.06.

As for GAGACCGCAACTGAAAAGTTGTGGGAAGGATAGTGAGTCGCTGCCTGCAAAGACACAACT, the ligation selection enrichment is 0.571 ± 0.21.

For the variant GAGACCGCAACTGAAAAGTTGTGGGAAGCATAGTGAGTCGCTGCCTGCAAAGACACAACT, the ligation selection enrichment worked out at 0.167 ± 0.033.

Consider GAGACCGCAACTGAAAAGTTGTGGGAAGAATAGTGAGTCGCTGCCTGCAAAGACACAACT, for which the ligation selection enrichment worked out at 0.306 ± 0.024.

For GAGACCGCAACTGAAAAGTTGTGGGACCAATAGTGAGTCGCTGCCTGCAAAGACACAACT, the ligation selection enrichment turned out to be 0.239 ± 0.067.

Regarding GAGACCGCAACTGAAAAGTTGTGGGACCGATAGTGAGTCGCTGCCTGCAAAGACACAACT, the ligation selection enrichment is 0.8601 ± 0.0032.

GAGACCGCAACTGAAAAGTTGTGGGACCCATAGTGAGTCGCTGCCTGCAAAGACACAACT: the ligation selection enrichment stood at 0.238 ± 0.057.

For GAGACCGCAACTGAAAAGTTGTGGAACAAATAGTGAGTCGCTGCCTGCAAAGACACAACT, the ligation selection enrichment came to 0.209 ± 0.018.

Turning to GAGACCGCAACTGAAAAGTTGTGGAACATATAGTGAGTCGCTGCCTGCAAAGACACAACT, the ligation selection enrichment stood at 0.729 ± 0.14.

On to GAGACCGCAACTGAAAAGTTGTGGAACACATAGTGAGTCGCTGCCTGCAAAGACACAACT, for which the ligation selection enrichment was 0.159 ± 0.016.

For GAGACCGCAACTGAAAAGTTGTGGAACAGATAGTGAGTCGCTGCCTGCAAAGACACAACT, the ligation selection enrichment is 0.2191 ± 0.00078.

On to GAGACCGCAACTGAAAAGTTGTGGCAACAATAGTGAGTCGCTGCCTGCAAAGACACAACT, for which the ligation selection enrichment was found to be 0.1345 ± 0.00036.

For GAGACCGCAACTGAAAAGTTGTGGCAACTATAGTGAGTCGCTGCCTGCAAAGACACAACT, the ligation selection enrichment was 0.615 ± 0.11.

On to GAGACCGCAACTGAAAAGTTGTGGCAACGATAGTGAGTCGCTGCCTGCAAAGACACAACT, for which the ligation selection enrichment worked out at 0.449 ± 0.066.

As to GAGACCGCAACTGAAAAGTTGTGGCAACCATAGTGAGTCGCTGCCTGCAAAGACACAACT, the ligation selection enrichment worked out at 0.126 ± 0.0056.

With GAGACCGCAACTGAAAAGTTGTGGAAACAATAGTGAGTCGCTGCCTGCAAAGACACAACT, the ligation selection enrichment turned out to be 0.177 ± 0.013.

On to GAGACCGCAACTGAAAAGTTGTGGAAACCATAGTGAGTCGCTGCCTGCAAAGACACAACT, for which the ligation selection enrichment was determined as 0.196 ± 0.0049.

Consider GAGACCGCAACTGAAAAGTTGTGGAAACTATAGTGAGTCGCTGCCTGCAAAGACACAACT, for which the ligation selection enrichment was 1.21 ± 0.29.

As for GAGACCGCAACTGAAAAGTTGTGGAAACGATAGTGAGTCGCTGCCTGCAAAGACACAACT, the ligation selection enrichment is 0.742 ± 0.064.

With GAGACCGCAACTGAAAAGTTGTGGCACCAATAGTGAGTCGCTGCCTGCAAAGACACAACT, the ligation selection enrichment amounted to 0.112 ± 0.018.

Take GAGACCGCAACTGAAAAGTTGTGGCACCCATAGTGAGTCGCTGCCTGCAAAGACACAACT: the ligation selection enrichment turned out to be 0.15 ± 0.0098.

For GAGACCGCAACTGAAAAGTTGTGGAAAAAATAGTGAGTCGCTGCCTGCAAAGACACAACT, the ligation selection enrichment is 0.191 ± 0.076.

Turning to GAGACCGCAACTGAAAAGTTGTGGAAAATATAGTGAGTCGCTGCCTGCAAAGACACAACT, the ligation selection enrichment is 0.461 ± 0.12.

Turning to GAGACCGCAACTGAAAAGTTGTGGAAAAGATAGTGAGTCGCTGCCTGCAAAGACACAACT, the ligation selection enrichment is 0.226 ± 0.025.
